Reference: patent publication US20160068813A1, “DIFFERENTIATION OF ADIPOSE STROMAL CELLS INTO OSTEOBLASTS AND USES THEREOF” (Artecel Sciences Inc., priority 1997, published 2016)

Tested on: stromal cells isolated from adipose tissue
Assay: Effect of compounds on osteoblast differentiation of adipose stromal cells, measured by secreted osteocalcin
Type: cell-based, human
Conditions: differentiated as in Example 2 in presence and absence of compound; secreted osteocalcin assay; data not shown
Description: Adipose stromal cells were isolated as described in Example 1 and then treated as follows to induce differentiation into osteoblasts. Stromal cells were plated in 24-well and/or 6-well tissue culture plates in stromal cell medium (see above) at a density of about 22,000 cells/cm^2. After 24 hours, the stromal cell medium was replaced with osteoblast differentiation medium (DMEM with 10% fetal bovine serum (v/v); 10 mM β-glycerophosphate; 50 μg/ml ascorbate-2-phosphate; 60 U/ml penicillin; 60 U/ml streptomycin; 15 μg/ml amphotericin B). The osteoblast differentiation medium was replaced with fresh medium every 3 days for 3 weeks. When changing the media, one ml of conditioned media was collected and stored at −80° C. for later analysis of secreted factors. […]
Biochemical changes indicative of osteoblast differentiation were also assessed. Osteocalcin is an osteoblast-specific secreted protein that can be measured by ELISA (Intact Human Osteocalcin K EIA kit, catalog number BT-460, Biomedical Technologies, Inc., Stoughton, Mass.). […]
Cultures of stromal cells isolated from adipose tissue according to the method described in Example 1 were used to study the effect compounds of interest on osteoblast differentiation. […] Differentiation was measured by assays for secreted osteocalcin. […]

B1: bone morphogenetic protein 4: bone morphogenetic protein, known osteoblast differentiation promoting agent (protein, UniProt P12644 293-408, looked up)
Bone morphogenetic protein 4: SPKHHSQRARKKNKNCRRHSLYVDFSDVGWNDWIVAPPGYQAFYCHGDCPFPLADHLNSTNHAIVQTLVNSVNSSIPKACCVPTELSAISMLYLDEYDKVVLKNYQEMVVEGCGCR
effect on osteoblast differentiation: positively affect osteoblast differentiation
